Tests used:
[1] = target: human Dcn1 potentiating neddylation domain (hDcn1^P) (human) (UniProt Q96GG9); assay: ITC
[2] = target: yeast Dcn1 potentiating neddylation domain (yDcn1^P) (yeast) (UniProt Q12395); assay: ITC
Sequence of UniProt Q12395 (Q12395 70-269): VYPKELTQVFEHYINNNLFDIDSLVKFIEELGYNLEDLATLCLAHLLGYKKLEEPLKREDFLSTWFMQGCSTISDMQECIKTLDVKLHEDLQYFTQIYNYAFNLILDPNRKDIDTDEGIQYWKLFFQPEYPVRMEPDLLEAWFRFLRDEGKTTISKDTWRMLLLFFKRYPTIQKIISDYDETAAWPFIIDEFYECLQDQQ

Sequence of UniProt Q96GG9 (Q96GG9 62-259): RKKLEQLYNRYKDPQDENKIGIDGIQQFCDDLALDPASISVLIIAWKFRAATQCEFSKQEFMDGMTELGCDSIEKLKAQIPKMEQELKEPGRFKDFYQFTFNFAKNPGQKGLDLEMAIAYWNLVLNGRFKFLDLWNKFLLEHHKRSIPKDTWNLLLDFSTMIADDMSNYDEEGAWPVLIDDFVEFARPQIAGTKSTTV

| fold change of Kd against the acetylated peptide (weaker binding) [1] [fold] | fold improvement of binding over the unacetylated peptide [1] [fold] | fold change of Kd against the acetylated peptide (weaker binding) [2] [fold] | fold improvement of binding over the unacetylated peptide [2] [fold] | Substance |
| --- | --- | --- | --- | --- |
| 9 | 10 |  |  | N-terminally formylated human Ubc12 peptide |
|  |  | 17 | 10 | N-terminally formylated yeast Ubc12 peptide |

From article PMC3214010
